Measured values published in publication PMC9445010.

What was measured:
[1] = molecular target: pMMO monomer consisting of PmoA, PmoB, and PmoC (Methylococcus capsulatus (Bath) (endogenous in M. capsulatus (Bath))) (UniProt Q607G3); assay: cryo-EM structure; cryoET with subtomogram averaging of isolated M. capsulatus (Bath) membranes, no detergent; 25 mM PIPES pH 7.3, 250 mM NaCl; single trimer 4.8 Å, 7-particle unit 10 Å, three trimers 12 Å; 3-fold symmetry applied
[2] = molecular target: particulate methane monooxygenase (pMMO) trimer (Methylococcus capsulatus (Bath) (endogenous in M. capsulatus (Bath))) (UniProt Q607G3)

stoichiometry N [1] | methane oxidation activity of SEC fractions with larger pMMO nanodisc arrays against single particle nanodiscs (13C-methanol by GC/MS, duroquinol reductant, 45 °C) [2] [fold] | Substance
3 |  | pMMO monomer consisting of PmoA, PmoB, and PmoC (from UniProt Q607G3 1-247; G1UBD1 33-414) (complex)
 | < 3 | particulate methane monooxygenase (pMMO) trimer (from UniProt Q607G3 1-247; G1UBD1 33-414) (complex)
